Publication doi:10.1101/2023.08.11.553045 (bioRxiv, 2023)
Where no end group is shown, it is not given here.

B1: STING cytosolic domain (hSTING CTD lacking CTT3, aa 137-366) (domain or fragment)
chain: KGLAPAEISAVCEKGNFNVAHGLAWSYYIGYLRLILPELQARIRTYNQHYNNLLRGAVSQRLYILLPLDCGVPDNLSMADPNIRFLDKLPQQTGDHAGIKDRVYSNSIYELLENGQRAGTCVLEYATPLQTLFAMSQYSQAGFSREDRLEQAKLFCRTLEDILADAPESQNNCRLIAYQEPADDSSFSLSQEVLRHLRQEEKEEVTVGSLKTSAVPSTSTMSQEPELLIS

How the values were obtained:
[1] = biological target: STING cytosolic domain (hSTING CTD lacking CTT3, aa 137-366) (human) (UniProt Q86WV6); test: MST
SEC = biological target: the molecule itself; test: SEC
[2] = biological target: B1; test: MST
STING-R284S CTD = STING-R284S CTD (human, UniProt Q86WV6 137-366, R284S); test: NMR titration
[3] = biological target: B1; test: NMR titration

CTT8 peptide (MFEKPLPL)
fold enhancement of affinity over CTT7 [1]: 2.7 fold

B1
binding result (SEC): binds

MEKPLPL [CTT7 peptide (unlabelled)]
Kd [2]: 10.7 µM

MEKPLPL (also: 15N isotopically labelled amino acids) [15N-labelled CTT7]
binding result (STING-R284S CTD): binds
binding result [3]: binds
